Laboratory results: PMC13087191 (Scientific Reports, 2026)

B1: Otu1-C120S-FLAG (enzyme, S. cerevisiae, UniProt P43558 1-301, looked up)
chain: MKLKVTGAGINQVVTLKQDATLNDLIEHINVDVKTMRFGYPPQRINLQGEDASLGQTQLDELGINSGEKITIESSDSNESFSLPPPQPKPKRVLKSTEMSIGGSGENVLSVHPVLDDNSSLFHAIAYGIFKQDSVRDLREMVSKEVLNNPVKFNDAILDKPNKDYAQWILKMESWGGAIEIGIISDALAVAIYVVDIDAVKIEKFNEDKFDNYILILFNGIHYDSLTMNEFKTVFNKNQPESDDVLTAALQLASNLKQTGYSFNTHKAQIKCNTCQMTFVGEREVARHAESTGHVDFGQNR
notes: Otu1, deubiquitinating enzyme of S. cerevisiae (Yod1 in mammals), with the active-site mutation C120S; pET28 with an N-terminal His6-tag and a TEV-protease cleavage site followed by a FLAG tag; source: E. coli BL21 CodonPlus (DE3) RIPL, purified (Ni-NTA, SEC)
B2: Yod1-C160S (enzyme, human, UniProt Q5VVQ6 1-348, looked up)
chain: MFGPAKGRHFGVHPAPGFPGGVSQQAAGTKAGPAGAWPVGSRTDTMWRLRCKAKDGTHVLQGLSSRTRVRELQGQIAAITGIAPGGQRILVGYPPECLDLSNGDTILEDLPIQSGDMLIIEEDQTRPRSSPAFTKRGASSYVRETLPVLTRTVVPADNSSLFTSVYYVVEGGVLNPACAPEMRRLIAQIVASDPDFYSEAILGKTNQEYCDWIKRDDTWGGAIEISILSKFYQCEICVVDTQTVRIDRFGEDAGYTKRVLLIYDGIHYDPLQRNFPDPDTPPLTIFSSNDDIVLVQALELADEARRRRQFTDVNRFTLRCMVCQKGLTGQAEAREHAKETGHTNFGEV
notes: Yod1, human, with the active-site mutation C160S; also called homolog of Otu1; source: E. coli BL21 CodonPlus (DE3) RIPL, purified (Ni-NTA, SEC)
B3: UBXN7-SBP (natural protein, human, UniProt O94888 1-489, looked up)
chain: MAAHGGSAASSALKGLIQQFTTITGASESVGKHMLEACNNNLEMAVTMFLDGGGIAEEPSTSSASVSTVRPHTEEEVRAPIPQKQEILVEPEPLFGAPKRRRPARSIFDGFRDFQTETIRQEQELRNGGAIDKKLTTLADLFRPPIDLMHKGSFETAKECGQMQNKWLMINIQNVQDFACQCLNRDVWSNEAVKNIIREHFIFWQVYHDSEEGQRYIQFYKLGDFPYVSILDPRTGQKLVEWHQLDVSSFLDQVTGFLGEHGQLDGLSSSPPKKCARSESLIDASEDSQLEAAIRASLQETHFDSTQTKQDSRSDEESESELFSGSEEFISVCGSDEEEEVENLAKSRKSPHKDLGHRKEENRRPLTEPPVRTDPGTATNHQGLPAVDSEILEMPPEKADGVVEGIDVNGPKAQLMLRYPDGKREQITLPEQAKLLALVKHVQSKGYPNERFELLTNFPRRKLSHLDYDITLQEAGLCPQETVFVQERN
notes: UBXN7, human, wild type; also called SBP-tagged version of UBXN7; homolog of Ubx5; source: E. coli BL21 CodonPlus (DE3) RIPL, purified (Ni-NTA, SEC); not shown: SBP, C-terminal, kept

Experiments:
Settings in all cases: both partners purified
[1] = biological target: T1, Cdc48-UN ATPase complex (S. cerevisiae, UniProt P25694 1-835; P53044 1-361; P33755 1-580); assay: pull-down; 1 µM Otu1-C120S-FLAG on anti-FLAG M2 agarose with 1 µM Cdc48, 1 µM UN and 1 µM Ub(n)-TAIL, with or without 1 µM Ubx5, SEC buffer, 5 mM ATPγS, 1 h, 4 °C; eluted with 3xFLAG peptide; fluorescence scan and Coomassie
T1 construct: Cdc48 ATPase of S. cerevisiae, wild type; Ufd1 of S. cerevisiae; Npl4 of S. cerevisiae; also called Cdc48 with the Ufd1-Npl4 (UN) complex; source: E. coli BL21 CodonPlus (DE3) RIPL, purified (Ni-NTA, SEC); Cdc48 and UN mixed; copies: 6 + +
T1 sequence (P25694 whole entry, chain 1 of 3): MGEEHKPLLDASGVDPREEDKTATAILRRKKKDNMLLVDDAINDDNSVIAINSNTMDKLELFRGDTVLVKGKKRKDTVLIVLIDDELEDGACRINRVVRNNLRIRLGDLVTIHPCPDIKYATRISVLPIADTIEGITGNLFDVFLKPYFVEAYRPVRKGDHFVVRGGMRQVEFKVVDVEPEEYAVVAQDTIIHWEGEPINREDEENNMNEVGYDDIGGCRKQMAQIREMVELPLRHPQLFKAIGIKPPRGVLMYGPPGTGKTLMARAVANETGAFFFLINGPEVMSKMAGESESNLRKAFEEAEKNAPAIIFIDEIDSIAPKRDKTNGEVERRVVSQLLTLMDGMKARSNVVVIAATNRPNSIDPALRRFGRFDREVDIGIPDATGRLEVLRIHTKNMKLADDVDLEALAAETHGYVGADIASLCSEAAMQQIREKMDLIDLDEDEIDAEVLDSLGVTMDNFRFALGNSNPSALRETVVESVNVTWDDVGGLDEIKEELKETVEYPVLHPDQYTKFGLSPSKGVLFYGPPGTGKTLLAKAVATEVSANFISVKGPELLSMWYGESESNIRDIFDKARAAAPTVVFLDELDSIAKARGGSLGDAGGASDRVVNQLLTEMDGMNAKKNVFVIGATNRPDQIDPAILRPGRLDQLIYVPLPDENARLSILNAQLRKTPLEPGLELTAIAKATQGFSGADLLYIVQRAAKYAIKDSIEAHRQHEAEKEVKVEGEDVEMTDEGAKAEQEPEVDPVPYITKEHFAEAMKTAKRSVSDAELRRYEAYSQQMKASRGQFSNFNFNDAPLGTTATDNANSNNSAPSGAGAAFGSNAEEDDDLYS
T1 sequence (P53044 whole entry, chain 2 of 3): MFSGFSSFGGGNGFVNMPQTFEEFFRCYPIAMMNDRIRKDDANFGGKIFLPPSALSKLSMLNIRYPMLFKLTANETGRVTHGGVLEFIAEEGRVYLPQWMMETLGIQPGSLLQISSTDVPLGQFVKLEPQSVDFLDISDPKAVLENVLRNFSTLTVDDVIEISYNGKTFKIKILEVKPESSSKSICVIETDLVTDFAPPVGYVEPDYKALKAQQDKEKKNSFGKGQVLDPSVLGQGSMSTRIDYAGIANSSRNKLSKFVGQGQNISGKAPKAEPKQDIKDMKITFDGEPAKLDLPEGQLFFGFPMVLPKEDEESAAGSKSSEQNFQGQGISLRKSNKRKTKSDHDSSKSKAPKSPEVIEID
T1 sequence (P33755 whole entry, chain 3 of 3): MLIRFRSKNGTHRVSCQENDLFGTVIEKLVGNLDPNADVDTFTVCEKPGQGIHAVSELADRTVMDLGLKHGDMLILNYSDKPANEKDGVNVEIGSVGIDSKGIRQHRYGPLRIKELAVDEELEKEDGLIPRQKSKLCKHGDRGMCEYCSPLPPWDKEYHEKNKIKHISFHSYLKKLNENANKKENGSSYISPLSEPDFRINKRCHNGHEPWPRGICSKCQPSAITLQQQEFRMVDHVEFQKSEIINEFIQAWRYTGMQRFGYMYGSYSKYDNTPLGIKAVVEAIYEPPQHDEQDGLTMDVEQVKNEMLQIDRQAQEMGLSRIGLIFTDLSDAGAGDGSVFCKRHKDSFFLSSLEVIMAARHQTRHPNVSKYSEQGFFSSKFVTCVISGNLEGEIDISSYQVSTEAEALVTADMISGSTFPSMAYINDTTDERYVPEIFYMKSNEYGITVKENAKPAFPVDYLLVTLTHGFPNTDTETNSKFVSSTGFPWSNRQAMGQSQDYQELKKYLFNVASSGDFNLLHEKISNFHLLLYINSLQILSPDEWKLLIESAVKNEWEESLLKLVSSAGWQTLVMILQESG

[2] = biological target: B3; assay: pull-down; 1 µM UBXN7-SBP on streptavidin agarose with 1 µM p97, 1 µM human UN, 1 µM Yod1-C160S and 1 µM Ub(n)-TAIL, SEC buffer, 5 mM ATPγS, 1 h, 4 °C; eluted with 2 mM biotin; Coomassie
[3] = biological target: T2, human Npl4 (human, UniProt Q8TAT6 1-608); assay: as above
T2 construct: Npl4, human; The plasmid paragraph tells of Npl4 in pET21 with a C-terminal His6 or FLAG-His6 tag and the purification paragraph of an untagged UN complex; neither says which holds for the human protein; also called hNpl4; source: purified; part of the 'human UN' complex
T2 sequence (Q8TAT6 whole entry): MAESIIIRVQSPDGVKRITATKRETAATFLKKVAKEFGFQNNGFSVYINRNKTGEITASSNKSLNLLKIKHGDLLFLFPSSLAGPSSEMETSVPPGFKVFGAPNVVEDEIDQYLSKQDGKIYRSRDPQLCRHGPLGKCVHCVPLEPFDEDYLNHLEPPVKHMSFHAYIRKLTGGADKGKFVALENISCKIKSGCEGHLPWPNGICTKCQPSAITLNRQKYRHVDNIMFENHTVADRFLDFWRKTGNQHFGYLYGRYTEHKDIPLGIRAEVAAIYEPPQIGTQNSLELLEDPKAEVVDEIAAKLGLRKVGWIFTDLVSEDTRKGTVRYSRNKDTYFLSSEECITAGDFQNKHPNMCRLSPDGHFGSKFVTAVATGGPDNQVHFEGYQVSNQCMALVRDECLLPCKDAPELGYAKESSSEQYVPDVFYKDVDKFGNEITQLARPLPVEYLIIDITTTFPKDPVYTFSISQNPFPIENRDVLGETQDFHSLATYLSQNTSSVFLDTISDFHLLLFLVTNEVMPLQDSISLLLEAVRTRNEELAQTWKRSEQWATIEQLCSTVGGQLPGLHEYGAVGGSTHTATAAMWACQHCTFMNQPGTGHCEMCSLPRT

[4] = biological target: T3, Human p97 ATPase (human, UniProt P55072 1-806); assay: as above
T3 construct: p97 (VCP), human, wild type; also called VCP; homolog of Cdc48; source: E. coli BL21 CodonPlus (DE3) RIPL, purified (Ni-NTA, SEC)
T3 sequence (P55072 whole entry): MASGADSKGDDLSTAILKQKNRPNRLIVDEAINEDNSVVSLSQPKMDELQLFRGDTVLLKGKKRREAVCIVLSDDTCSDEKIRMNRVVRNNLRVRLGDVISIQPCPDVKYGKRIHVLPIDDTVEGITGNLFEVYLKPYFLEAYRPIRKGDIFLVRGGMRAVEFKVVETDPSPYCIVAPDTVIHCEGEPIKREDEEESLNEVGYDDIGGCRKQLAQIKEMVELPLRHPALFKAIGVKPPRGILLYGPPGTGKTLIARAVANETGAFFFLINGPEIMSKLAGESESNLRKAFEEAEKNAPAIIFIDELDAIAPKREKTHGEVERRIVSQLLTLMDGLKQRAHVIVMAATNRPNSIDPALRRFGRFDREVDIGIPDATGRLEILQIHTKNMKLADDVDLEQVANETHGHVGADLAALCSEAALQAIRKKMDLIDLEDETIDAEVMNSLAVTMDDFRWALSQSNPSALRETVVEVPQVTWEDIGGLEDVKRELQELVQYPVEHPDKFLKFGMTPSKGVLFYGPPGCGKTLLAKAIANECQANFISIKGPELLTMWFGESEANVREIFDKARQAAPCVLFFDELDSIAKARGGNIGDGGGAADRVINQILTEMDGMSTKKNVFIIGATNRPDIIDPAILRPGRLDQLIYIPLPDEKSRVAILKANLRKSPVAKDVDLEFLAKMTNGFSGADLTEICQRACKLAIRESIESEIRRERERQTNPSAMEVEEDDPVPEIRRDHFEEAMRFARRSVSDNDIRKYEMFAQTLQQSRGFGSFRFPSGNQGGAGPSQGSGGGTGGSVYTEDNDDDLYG

Binder: B1
binding result [1]: binds

Binder: B2
binding result [2]: binds

Binder: B3
binding result [3]: binds
binding result [4]: binds
